Measurements reported in the domain aggregation screens of Martell et al. (2025).

Experiment: soluble fraction after stress (log2 fold change); higher = more stays soluble; pooled small domains, quantitative proteomics
Details: stress: 75 degC
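Also: 20 min heating vs room temperature control held 20 min.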

Sequence | soluble fraction (log2)
HMRDGYEKPTEVGEGGRNPAMLSYIGHLRAKGHLSEEDIRSMAHGFNATTFDPPLDRDEVDGLVSRY | 0.106
HMRDITAQSNASELYFEERDLEAFIEKLERLYPEIRYVNRLMIHSWGQQVVRFFDPDGNLIEVGTP | -0.146
HMRDKTMLGNVIRTRRKKMNLTLEELSKQVGITSGGLSQIERGLVDPSLSVLRRISRALNLPMNVMFSE | -1.32
HMRDLAEAETILDALPTRLRKIVRWRHLEGLSQTEIAARLEISQMHVSRLYRRAISMIHASLADD | -0.289
HMREEQELFRKLLEVNGIGPKVAAGMLAGGRPEDVVSAIRREDVAWLTKLPGIGRKTAQRIVLDLKDKLD | -0.331
HMREPQMVTVNGDKVTHGHAYRSNVNPEDWYFTARINGQQLKPQKMEPADVAAYDKKEIGVPELMQR | -0.275
HMRESPYRRVAKFLLLIGTAEAAKIVSRLDQDQVEKVMLELSGIRSVPRDEATVILAEFESLLQQAR | -2.03
HMRESRLFQILYQLLTKKKVTAANLAKQFEVSVRTIYRDIDALSSSGIPIYASQGKNGGIQLDEDF | -0.992
HMRETELPVTIISAGRILAENLHLAGRDGGWLEAELKRRSLTAEQVLLLTVDAAGTVYLVRKEDL | -2.1
HMREWPLWEIFIRGQHGLNHRHVGSLHAPDAAMAIGNARDVYTRRNEGVSIWAVRSADVVASVPSE | -2.08
HMRGADNAASILKEVGPHPEDGKPITVRSGRYGPYVKHGTTNATLPKDIKPEEITLDEAIALINERVAKG | 0.018
HMRGGKGTVPDVTGMDAAAAVRILEKAGMNVAYIRGAGFVAEQTPAAGTKLKKGDKAYITLSWK | -0.622
HMRGGWESLTDREREIAVLAAEGHSNRTIASTLFISDRTVQSHVSRALRALGVDSRTGIPSLVTTATR | 0.09
HMRGWGTVKRRTPKSGRYRASYIGPDGKRYAADHTYAAKVDADAWLSSERALITAGVWTPPTDRVT | -0.688
HMRHLSVPSQDTQQVLQRLKVELALPEGARVRSDPSDPGRRLIPFTESVPQEMIDQYPVVSINI | -0.147
HMRIAGIDIPDNKRGEVALTYIFGIGRSSSKKILKSAGIDSDKQIGKWTDDESNLVRKLIRDEYTIEGDL | -0.312
HMRIASANAIYDELLNKRDDAKLAELKQEDINLYALYILQNGSADERAALENTQGIDVVLKEIINLQNG | -0.305
HMRIGINDRIHEIVDVLRLKKSTPFEDLFSGLVTRFDLVITFLALLEMGKLRLLRLYQTDPLAPLHVEYTG | -0.0164
HMRILDFPALKTEFDQLTKDLMAKYPEDGADRVRAIIETVLGPGKKVGALQPHQAELLAEVNTSLKANL | -0.0738
HMRILGIDPGTRITGYGIIDIEGNRLRHVDNGIIKTRSSDALPLRLKVIYDGLTAVLKQYSPQAV | 0.23
HMRIQTVDYNTFISMVEDGKVDAAEIQQQENRILFSDQDQKVYKTAMVPDDDLTQRLLDAGVSTNG | 0.726
HMRISKRQLILESAAAIINEKGADYLTLDAVAQRAGISKGGLFYHFKSKDELIKELVNYANN | -1.56
HMRISLKAQVYEYLKQAIINGDLKVGEIYSEQYFADKLSISRTPVREAILQLQHENMVEVKANRGIIVK | -2.73
HMRITTKNYFKAISEVGFENLPEVLKKSHLVIEEKTNKGNDWGIYENDAEAKKVFDLAFDKLEEFIDRKED | 0.461
HMRIVQTDYRNFLSQVESGAVRSVQIDETQIRYTALDSGGKEIVYNTGKVDDPGLVNRLYDAGVEFSQVIP | -0.132
HMRKATEVPFTAFKDSIENSHGKLSKAGLARHLADEYGMSQRNMERRINNLIDNKTIKYGNEGGLVWIG | -0.104
HMRKDWTPGAFVEAFVNDTPATRSTILAKAVSAGLSRWAADNLLRTADNDGLMVRQGSGKRNEPFTYRRGP | -0.257
HMRKEEFIRELVLELKQNVSEQVILEQKRFYEEYILTEVRGGKTEEEVIASLSEPRLLAKSIIDAAEAGGD | -1.3

Sequence | soluble fraction (log2)
HMRKKDGEAYVLPRPLKKGDSVLIYDIDKKGTVLQPPEKGGKTALIQAGIIQTRVPVSNLRLLE | 0.537
HMRKKIIAQTLEEIRKSKGYSQKQVAAFIKVKPTTYNTYESGRTEPPAEILVRLSYLYRTPVDTLVQRDR | -2.13
HMRKMNDAVFYVEMSRPKRGYYTATYKLITRNPNSLPEHEITRRFFQMLEETIRKNPPYYLWTH | -0.527
HMRKPISQEIVDEVLKLAKNNPDWGYDRIAGVMKYLKYDVSATTVRHILDDNGIVPDPERRLR | 0.23
HMRKRLLQLVHIGKSQLGMDDETYRSLLSQQFYQNSAKNISYSELVKLVKILQQKGAKIRLPH | -2.17
HMRKVVLEEKEANYYAEPNSESELLGVLKRGIHLTVTDVKKEAGSDGWVKLVHPDGQEGWISGRARIRV | -0.212
HMRKYKIKEELPDNIYKIIQDNPGIVQKDIYDILGREYQQNISSYIYSMDKNGVIKRDKHGNSYKLYL | -0.119
HMRLATSELVYRIRALIRDQELQPGERLGSERALAQSLGISRSDLRMALAVLEASHEVIRKIGRAGGIVVS | -3.18
HMRLHSSGEDYLKAIFILEAQHSSVRSVEVAEYMNVSKASVSHAVALLKKNGFLKMNQDYDLTER | -0.163
HMRLIALPSVTDISIRQAEATLMSIGIKVSSIQYAPSEYKDLVLEVKYRGQSIIQGAKIPEGSSVVLVAGN | -3.21
HMRLPLYLALAQTLRQEIDAKQYKIGAHLPPEDQLVVKYGVSRHTVRQALQELKNEGLITSKAGIGTIVSS | -1.56
HMRLPQEVWEKIRAAYEAHGLSFSELAEMYGVNKSNISRRAKAEGWNQAETQRLITATVENE | 0.374
HMRLREETRKVDKTGLIQVDGRHYRVPDEYSQKDVQILMDDNSIMVYRKGDFVIELDKETSVYMPH | 0.347
HMRMETRILTADESGIRLDAFLASRLAVSRSLAASLIDDGNVTLNGTVPKKKTAVNVGDILEVAMP | -0.987
HMRMLTKRRQDLLLELLEERGSITVSEVKDMLDASESTIRRDITALDEEGKLVKVFGGAVAAR | -0.345
HMRMSRSARLFDLLHILRSHRRAVSGQALAQQLGISIRTLYRDIASLQAQGAKIEGEPGVGYMLKP | -1.82
HMRMTKQRQAVLDELTRVTDFRSAQQIFEDLHSQGHRVGLATIYRSLQGLAEDGSVDTLRSSDGESLY | -0.206
HMRMTRQRKVILEELGKVYTHPTADEIYTMVKEKLPNISLGTVYRNLDLLAENNQVLKLETAGNIRRYD | -0.17
HMRMYDVNEYSDEELHRILDLSSPTDSELEARILQMIQKYKYTNGGDNEKMAVFFENIYHHFFD | -1.65
HMRNAAGGIYGWMTLHQVAETVKLTEEEVIAITNLPAGIPRDVSLKNIEGVNDEELRALLEAYLEKQ | -1.34
HMRNISLSLRWHSGEWTADRLKSEVLALPGAMDMTVFEPQSQAYLRVEQGFDTKLLPAGIDVH | -1.31
HMRNNKLRRANKLKTEFENLPHIGKKRAHVLLKAFGSTENLKMTTAQALSEAAKISLKQAEEVLEAVRG | -0.466
HMRNQIRAVITPVPNQERYTVEMTIDDDAGNLLTLQMAAPDRQQAAEFAQRFQKHPEALYHAVLSVLL | -0.214
HMRNSFTVENTGERLDVFLTGQMPEFSRSHIQKLIASGQAWVNGVNRKGNFKLKPHDVVELEVPEPE | 0.381
HMRNSVQREWIYDYIQRQDAHLSADEIYEGLLKEGKNISLATVYRNLSILVDEYKIASVMTDSKKQVYDK | -2.56
HMRNTPQRRHAILALLSEQGEVSVDALAKRFSTSEVTIRKDLAAMESHGLLLRRYGGAVPMPQELI | -1.63
HMRPEVALSSRELEILEALATGKSNKELAQRLFISEATVKTHLIHIYQKLGVDTRTAAVTVARERKL | -2.3
